Laboratory results from the Human Domainome abundance scans (Beltran et al. 2025).
± gives the uncertainty stated by the source.

test: abundance fitness (aPCA) (normalised: wild type 0, dead -1); higher = more abundant; growth selection in yeast, the domain comes from the species named; settings: Homo sapiens

With “Lipoamide acyltransferase component of branched-chain alpha-keto acid dehydrogenase complex, mitochondrial T171A, P11182” as the substance, how does the abundance fitness read?
The abundance fitness was -0.215 ± 0.055.

With “Lipoamide acyltransferase component of branched-chain alpha-keto acid dehydrogenase complex, mitochondrial T171C, P11182” as the substance, how does the abundance fitness read?
The abundance fitness was -0.282 ± 0.063.

Which abundance fitness does the source give for “Lipoamide acyltransferase component of branched-chain alpha-keto acid dehydrogenase complex, mitochondrial T171D, P11182” here?
Its abundance fitness is -0.035 ± 0.073.

For “Lipoamide acyltransferase component of branched-chain alpha-keto acid dehydrogenase complex, mitochondrial T171E, P11182”, which abundance fitness is on record?
The abundance fitness was -0.268 ± 0.058.

With “Lipoamide acyltransferase component of branched-chain alpha-keto acid dehydrogenase complex, mitochondrial T171F, P11182” as the substance, how does the abundance fitness read?
The abundance fitness was -0.028 ± 0.12.

Which abundance fitness does the source give for “Lipoamide acyltransferase component of branched-chain alpha-keto acid dehydrogenase complex, mitochondrial T171K, P11182” here?
Its abundance fitness is -0.061 ± 0.069.

Which abundance fitness does the source give for “Lipoamide acyltransferase component of branched-chain alpha-keto acid dehydrogenase complex, mitochondrial T171L, P11182” here?
The abundance fitness was -0.632 ± 0.17.

For “Lipoamide acyltransferase component of branched-chain alpha-keto acid dehydrogenase complex, mitochondrial T171M, P11182”, which abundance fitness is on record?
Its abundance fitness is 0.031 ± 0.062.

With “Lipoamide acyltransferase component of branched-chain alpha-keto acid dehydrogenase complex, mitochondrial T171N, P11182” as the substance, how does the abundance fitness read?
The abundance fitness was -0.012 ± 0.058.

With “Lipoamide acyltransferase component of branched-chain alpha-keto acid dehydrogenase complex, mitochondrial T171P, P11182” as the substance, how does the abundance fitness read?
Its abundance fitness is -0.422 ± 0.11.

For “Lipoamide acyltransferase component of branched-chain alpha-keto acid dehydrogenase complex, mitochondrial T171Q, P11182”, which abundance fitness is on record?
Its abundance fitness is -0.391 ± 0.09.

Which abundance fitness does the source give for “Lipoamide acyltransferase component of branched-chain alpha-keto acid dehydrogenase complex, mitochondrial T171R, P11182” here?
The abundance fitness was -0.578 ± 0.058.

Which abundance fitness does the source give for “Lipoamide acyltransferase component of branched-chain alpha-keto acid dehydrogenase complex, mitochondrial T171S, P11182” here?
Its abundance fitness is -0.267 ± 0.075.

With “Lipoamide acyltransferase component of branched-chain alpha-keto acid dehydrogenase complex, mitochondrial T171V, P11182” as the substance, how does the abundance fitness read?
The abundance fitness was 0.019 ± 0.057.

With “Lipoamide acyltransferase component of branched-chain alpha-keto acid dehydrogenase complex, mitochondrial T171W, P11182” as the substance, how does the abundance fitness read?
Its abundance fitness is -0.49 ± 0.075.

Which abundance fitness does the source give for “Lipoamide acyltransferase component of branched-chain alpha-keto acid dehydrogenase complex, mitochondrial T171Y, P11182” here?
Its abundance fitness is -0.022 ± 0.062.

With “Lipoamide acyltransferase component of branched-chain alpha-keto acid dehydrogenase complex, mitochondrial T174A, P11182” as the substance, how does the abundance fitness read?
Its abundance fitness is -0.347 ± 0.066.

Which abundance fitness does the source give for “Lipoamide acyltransferase component of branched-chain alpha-keto acid dehydrogenase complex, mitochondrial T174C, P11182” here?
Its abundance fitness is -0.141 ± 0.081.

Which abundance fitness does the source give for “Lipoamide acyltransferase component of branched-chain alpha-keto acid dehydrogenase complex, mitochondrial T174D, P11182” here?
The abundance fitness was 0.003 ± 0.058.

For “Lipoamide acyltransferase component of branched-chain alpha-keto acid dehydrogenase complex, mitochondrial T174E, P11182”, which abundance fitness is on record?
The abundance fitness was -0.389 ± 0.053.

Which abundance fitness does the source give for “Lipoamide acyltransferase component of branched-chain alpha-keto acid dehydrogenase complex, mitochondrial T174F, P11182” here?
The abundance fitness was -0.403 ± 0.075.

For “Lipoamide acyltransferase component of branched-chain alpha-keto acid dehydrogenase complex, mitochondrial T174G, P11182”, which abundance fitness is on record?
Its abundance fitness is -0.39 ± 0.038.

Which abundance fitness does the source give for “Lipoamide acyltransferase component of branched-chain alpha-keto acid dehydrogenase complex, mitochondrial T174H, P11182” here?
Its abundance fitness is -0.206 ± 0.069.

Which abundance fitness does the source give for “Lipoamide acyltransferase component of branched-chain alpha-keto acid dehydrogenase complex, mitochondrial T174I, P11182” here?
The abundance fitness was -0.601 ± 0.11.

With “Lipoamide acyltransferase component of branched-chain alpha-keto acid dehydrogenase complex, mitochondrial T174K, P11182” as the substance, how does the abundance fitness read?
Its abundance fitness is -0.379 ± 0.063.

With “Lipoamide acyltransferase component of branched-chain alpha-keto acid dehydrogenase complex, mitochondrial T174L, P11182” as the substance, how does the abundance fitness read?
Its abundance fitness is -0.724 ± 0.059.

For “Lipoamide acyltransferase component of branched-chain alpha-keto acid dehydrogenase complex, mitochondrial T174M, P11182”, which abundance fitness is on record?
Its abundance fitness is -0.643 ± 0.084.

With “Lipoamide acyltransferase component of branched-chain alpha-keto acid dehydrogenase complex, mitochondrial T174N, P11182” as the substance, how does the abundance fitness read?
The abundance fitness was -0.064 ± 0.13.

With “Lipoamide acyltransferase component of branched-chain alpha-keto acid dehydrogenase complex, mitochondrial T174V, P11182” as the substance, how does the abundance fitness read?
Its abundance fitness is -0.773 ± 0.052.

For “Lipoamide acyltransferase component of branched-chain alpha-keto acid dehydrogenase complex, mitochondrial T174W, P11182”, which abundance fitness is on record?
The abundance fitness was -0.787 ± 0.045.

For “Lipoamide acyltransferase component of branched-chain alpha-keto acid dehydrogenase complex, mitochondrial T213C, P11182”, which abundance fitness is on record?
Its abundance fitness is -0.179 ± 0.074.

For “Lipoamide acyltransferase component of branched-chain alpha-keto acid dehydrogenase complex, mitochondrial T213D, P11182”, which abundance fitness is on record?
The abundance fitness was 0.049 ± 0.058.

With “Lipoamide acyltransferase component of branched-chain alpha-keto acid dehydrogenase complex, mitochondrial T213F, P11182” as the substance, how does the abundance fitness read?
Its abundance fitness is -0.222 ± 0.069.

With “Lipoamide acyltransferase component of branched-chain alpha-keto acid dehydrogenase complex, mitochondrial T213G, P11182” as the substance, how does the abundance fitness read?
Its abundance fitness is 0.093 ± 0.036.

Which abundance fitness does the source give for “Lipoamide acyltransferase component of branched-chain alpha-keto acid dehydrogenase complex, mitochondrial T213H, P11182” here?
Its abundance fitness is -0.062 ± 0.058.

For “Lipoamide acyltransferase component of branched-chain alpha-keto acid dehydrogenase complex, mitochondrial T213K, P11182”, which abundance fitness is on record?
Its abundance fitness is 0.145 ± 0.071.

Which abundance fitness does the source give for “Lipoamide acyltransferase component of branched-chain alpha-keto acid dehydrogenase complex, mitochondrial T213L, P11182” here?
The abundance fitness was -0.185 ± 0.056.

With “Lipoamide acyltransferase component of branched-chain alpha-keto acid dehydrogenase complex, mitochondrial T213M, P11182” as the substance, how does the abundance fitness read?
The abundance fitness was -0.122 ± 0.097.

Which abundance fitness does the source give for “Lipoamide acyltransferase component of branched-chain alpha-keto acid dehydrogenase complex, mitochondrial T213P, P11182” here?
Its abundance fitness is -0.075 ± 0.065.

For “Lipoamide acyltransferase component of branched-chain alpha-keto acid dehydrogenase complex, mitochondrial T213Q, P11182”, which abundance fitness is on record?
The abundance fitness was 0.005 ± 0.047.

With “Lipoamide acyltransferase component of branched-chain alpha-keto acid dehydrogenase complex, mitochondrial T213R, P11182” as the substance, how does the abundance fitness read?
Its abundance fitness is 0.066 ± 0.045.

For “Lipoamide acyltransferase component of branched-chain alpha-keto acid dehydrogenase complex, mitochondrial T213S, P11182”, which abundance fitness is on record?
Its abundance fitness is -0.008 ± 0.046.

For “Lipoamide acyltransferase component of branched-chain alpha-keto acid dehydrogenase complex, mitochondrial T213V, P11182”, which abundance fitness is on record?
Its abundance fitness is -0.028 ± 0.048.

With “Lipoamide acyltransferase component of branched-chain alpha-keto acid dehydrogenase complex, mitochondrial T213W, P11182” as the substance, how does the abundance fitness read?
Its abundance fitness is -0.247 ± 0.053.

With “Lipoamide acyltransferase component of branched-chain alpha-keto acid dehydrogenase complex, mitochondrial T213Y, P11182” as the substance, how does the abundance fitness read?
The abundance fitness was -0.386 ± 0.15.

With “Lipoamide acyltransferase component of branched-chain alpha-keto acid dehydrogenase complex, mitochondrial V177A, P11182” as the substance, how does the abundance fitness read?
The abundance fitness was 0.038 ± 0.04.

For “Lipoamide acyltransferase component of branched-chain alpha-keto acid dehydrogenase complex, mitochondrial V177D, P11182”, which abundance fitness is on record?
The abundance fitness was -0.417 ± 0.073.

With “Lipoamide acyltransferase component of branched-chain alpha-keto acid dehydrogenase complex, mitochondrial V177E, P11182” as the substance, how does the abundance fitness read?
The abundance fitness was -0.385 ± 0.049.
